In article PMC9482650, “Quantitative fragmentomics allow affinity mapping of interactomes” (Nature Communications, 2022):

How the values were obtained:
Assay in all cases: holdup assay
Parameters in all cases: key: below the threshold = too weak to quantify, mostly under pKd 3.1 to 4
[1] = target: T1, APBA1_1, Q02410
T1 sequence (Q02410 651-752, limits assumed, looked up): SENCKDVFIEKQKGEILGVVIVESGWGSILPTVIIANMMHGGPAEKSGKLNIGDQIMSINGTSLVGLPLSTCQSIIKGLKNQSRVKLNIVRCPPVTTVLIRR

[2] = target: T2, APBA2_1, Q99767
T2 sequence (Q99767 563-664, limits assumed, looked up): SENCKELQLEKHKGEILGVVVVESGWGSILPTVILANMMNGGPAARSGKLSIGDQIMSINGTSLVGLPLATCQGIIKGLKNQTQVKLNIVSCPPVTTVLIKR

[3] = target: T3, APBA2_2, Q99767
T3 sequence (Q99767 654-744, limits assumed, looked up): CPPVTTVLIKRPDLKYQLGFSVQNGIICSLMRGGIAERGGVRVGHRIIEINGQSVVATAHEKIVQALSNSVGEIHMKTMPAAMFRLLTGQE

[4] = target: T4, APBA3_1, O96018
T4 sequence (O96018 389-490, limits assumed, looked up): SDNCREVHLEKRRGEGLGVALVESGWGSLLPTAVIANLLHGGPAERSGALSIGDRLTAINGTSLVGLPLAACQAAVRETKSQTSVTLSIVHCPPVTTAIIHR

[5] = target: T5, DFNB31_3, Q9P202
T5 sequence (Q9P202 811-907, limits assumed, looked up): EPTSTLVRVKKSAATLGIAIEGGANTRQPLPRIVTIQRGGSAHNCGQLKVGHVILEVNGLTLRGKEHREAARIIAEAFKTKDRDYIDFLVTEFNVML

[6] = target: T6, DVL3, Q92997
T6 sequence (Q92997 244-331, limits assumed, looked up): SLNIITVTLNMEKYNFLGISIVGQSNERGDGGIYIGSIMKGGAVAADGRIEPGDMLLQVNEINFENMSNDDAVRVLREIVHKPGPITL

[7] = target: FRMPD4, Q14CM0
Chain of FRMPD4, Q14CM0 (Q14CM0 67-160): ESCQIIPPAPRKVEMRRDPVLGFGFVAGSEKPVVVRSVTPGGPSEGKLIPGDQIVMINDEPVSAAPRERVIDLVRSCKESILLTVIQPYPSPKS

[8] = target: GRASP, Q7Z6J2
Chain of GRASP, Q7Z6J2 (Q7Z6J2 96-193): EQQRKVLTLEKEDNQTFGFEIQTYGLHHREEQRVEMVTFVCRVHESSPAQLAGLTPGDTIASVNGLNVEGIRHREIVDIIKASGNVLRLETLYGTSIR

[9] = target: GRIP2_3, Q9C0E4
Chain of GRIP2_3, Q9C0E4 (Q9C0E4 238-339): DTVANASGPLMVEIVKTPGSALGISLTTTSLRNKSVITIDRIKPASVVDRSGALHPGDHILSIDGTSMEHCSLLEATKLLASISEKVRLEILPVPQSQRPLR

[10] = target: GRIP2_7, Q9C0E4
Chain of GRIP2_7, Q9C0E4 (Q9C0E4 934-1023): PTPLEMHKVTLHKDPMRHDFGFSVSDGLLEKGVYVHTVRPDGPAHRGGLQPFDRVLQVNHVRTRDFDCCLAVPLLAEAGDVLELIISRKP

[11] = target: T7, HTRA4, P83105
T7 sequence (P83105 378-476, limits assumed, looked up): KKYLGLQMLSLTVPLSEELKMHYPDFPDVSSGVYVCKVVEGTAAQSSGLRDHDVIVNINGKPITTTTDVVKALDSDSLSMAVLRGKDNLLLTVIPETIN

[12] = target: Inadl_2, Q8NI35
Chain of Inadl_2, Q8NI35 (Q8NI35 238-335): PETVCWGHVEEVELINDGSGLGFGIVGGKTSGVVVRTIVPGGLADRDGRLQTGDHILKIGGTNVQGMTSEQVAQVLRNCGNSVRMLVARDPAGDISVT

[13] = target: T8, LIN7B, Q9HAP6
T8 sequence (Q9HAP6 88-185, limits assumed, looked up): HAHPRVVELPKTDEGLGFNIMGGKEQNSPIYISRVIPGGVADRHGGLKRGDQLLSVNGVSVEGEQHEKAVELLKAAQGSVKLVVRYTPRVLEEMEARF

[14] = target: MAGI2_4, Q86UL8
Chain of MAGI2_4, Q86UL8 (Q86UL8 772-865): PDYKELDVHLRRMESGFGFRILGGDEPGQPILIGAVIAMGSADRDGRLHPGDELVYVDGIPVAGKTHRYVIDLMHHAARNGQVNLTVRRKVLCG

[15] = target: MAGI3_2, Q5TCQ9
Chain of MAGI3_2, Q5TCQ9 (Q5TCQ9 398-503): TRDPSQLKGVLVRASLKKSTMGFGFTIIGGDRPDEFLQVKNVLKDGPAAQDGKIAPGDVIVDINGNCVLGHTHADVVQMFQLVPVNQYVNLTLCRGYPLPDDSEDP

[16] = target: MAST2, Q6P0Q8
Chain of MAST2, Q6P0Q8 (Q6P0Q8 1099-1202): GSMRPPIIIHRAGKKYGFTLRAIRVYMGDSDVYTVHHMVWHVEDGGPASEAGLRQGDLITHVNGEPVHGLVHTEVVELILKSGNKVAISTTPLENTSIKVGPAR

[17] = target: T9, MPDZ_10, O75970
T9 sequence (O75970 1624-1722, limits assumed, looked up): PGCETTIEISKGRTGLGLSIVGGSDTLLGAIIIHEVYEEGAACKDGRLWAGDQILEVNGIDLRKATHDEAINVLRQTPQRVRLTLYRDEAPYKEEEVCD

[18] = target: T10, NHERF3_4, Q5T2W1
T10 sequence (Q5T2W1 373-468, limits assumed, looked up): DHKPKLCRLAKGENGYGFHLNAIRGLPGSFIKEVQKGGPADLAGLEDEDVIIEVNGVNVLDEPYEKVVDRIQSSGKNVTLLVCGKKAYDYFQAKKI

[19] = target: PDLIM1, O00151
Chain of PDLIM1, O00151 (O00151 1-87): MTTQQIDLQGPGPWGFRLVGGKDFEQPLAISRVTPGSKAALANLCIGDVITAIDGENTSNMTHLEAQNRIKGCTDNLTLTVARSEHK

[20] = target: T11, PDZD7_3, Q9H5P4
T11 sequence (Q9H5P4 857-944, limits assumed, looked up): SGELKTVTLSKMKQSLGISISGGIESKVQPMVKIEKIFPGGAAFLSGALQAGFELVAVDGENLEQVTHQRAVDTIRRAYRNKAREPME

[21] = target: T12, SIPA1L2, Q9P2F8
T12 sequence (Q9P2F8 945-1036, limits assumed, looked up): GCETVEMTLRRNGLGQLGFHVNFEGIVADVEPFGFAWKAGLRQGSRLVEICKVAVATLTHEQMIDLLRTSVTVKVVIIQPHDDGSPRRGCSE

[22] = target: SNX27, Q96L92
[23] = target: T13, SYNJ2BP, P57105
T13 sequence (P57105 8-110, limits assumed, looked up): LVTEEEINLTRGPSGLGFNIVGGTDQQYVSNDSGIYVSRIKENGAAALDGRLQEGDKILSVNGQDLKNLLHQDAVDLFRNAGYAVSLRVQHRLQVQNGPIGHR

[24] = target: TJP2_1, Q9UDY2
Chain of TJP2_1, Q9UDY2 (Q9UDY2 24-128): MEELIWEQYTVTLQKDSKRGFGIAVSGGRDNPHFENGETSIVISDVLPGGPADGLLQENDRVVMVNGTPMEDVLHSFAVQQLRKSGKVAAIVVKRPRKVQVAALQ

[25] = plain residues with an end cap or a label only (N-terminal biotin on a linker: ado-ado)
[26] = modified: phospho on T at position -2 from the C-terminal residue

PPYRHRNTVV [ERBB4, Q15303]
pKd [1, 25]: below the threshold | pKd [2, 25]: below the threshold | pKd [3, 25]: below the threshold | pKd [4, 25]: below the threshold | pKd [5, 25]: below the threshold | pKd [6, 25]: below the threshold | pKd [7, 25]: below the threshold | pKd [8, 25]: 4.04 | pKd [9, 25]: below the threshold | pKd [10, 25]: below the threshold | pKd [11, 25]: below the threshold | pKd [12, 25]: below the threshold | pKd [13, 25]: below the threshold | pKd [14, 25]: 4.43 | pKd [15, 25]: 4.79 | pKd [16, 25]: 4.48 | pKd [17, 25]: 3.95 | pKd [18, 25]: below the threshold | pKd [19, 25]: below the threshold | pKd [20, 25]: 4.63 | pKd [21, 25]: below the threshold | pKd [22, 25]: 4.42 | pKd [23, 25]: 4.36 | pKd [24, 25]: 3.81

RRLPGKETMA [GRIK2, Q13002]
pKd [1, 25]: below the threshold | pKd [2, 25]: below the threshold | pKd [3, 25]: below the threshold | pKd [4, 25]: below the threshold | pKd [5, 25]: below the threshold | pKd [6, 25]: below the threshold | pKd [7, 25]: below the threshold | pKd [8, 25]: below the threshold | pKd [9, 25]: below the threshold | pKd [10, 25]: below the threshold | pKd [11, 25]: below the threshold | pKd [12, 25]: below the threshold | pKd [13, 25]: 3.64 | pKd [14, 25]: below the threshold | pKd [15, 25]: below the threshold | pKd [16, 25]: below the threshold | pKd [17, 25]: below the threshold | pKd [18, 25]: below the threshold | pKd [19, 25]: below the threshold | pKd [20, 25]: below the threshold | pKd [21, 25]: below the threshold | pKd [22, 25]: below the threshold | pKd [23, 25]: below the threshold | pKd [24, 25]: below the threshold

RRISSLESEV [GRIN2C, Q14957]
pKd [1, 25]: below the threshold | pKd [2, 25]: below the threshold | pKd [3, 25]: below the threshold | pKd [4, 25]: below the threshold | pKd [5, 25]: below the threshold | pKd [6, 25]: below the threshold | pKd [7, 25]: below the threshold | pKd [8, 25]: below the threshold | pKd [9, 25]: below the threshold | pKd [10, 25]: below the threshold | pKd [11, 25]: below the threshold | pKd [12, 25]: below the threshold | pKd [13, 25]: 4.12 | pKd [14, 25]: 3.95 | pKd [15, 25]: 4.96 | pKd [16, 25]: 5.07 | pKd [17, 25]: below the threshold | pKd [18, 25]: 3.66 | pKd [19, 25]: 3.75 | pKd [20, 25]: 4.32 | pKd [21, 25]: below the threshold | pKd [22, 25]: 4.97 | pKd [23, 25]: 5.38 | pKd [24, 25]: below the threshold

SKPTRRETEV [HPV35-E6_-2P, P27228]
pKd [1, 26]: below the threshold | pKd [2, 26]: below the threshold | pKd [3, 26]: below the threshold | pKd [4, 26]: below the threshold | pKd [5, 26]: 3.95 | pKd [6, 26]: below the threshold | pKd [7, 26]: below the threshold | pKd [8, 26]: below the threshold | pKd [9, 26]: below the threshold | pKd [10, 26]: below the threshold | pKd [11, 26]: below the threshold | pKd [12, 26]: below the threshold | pKd [13, 26]: below the threshold | pKd [14, 26]: below the threshold | pKd [15, 26]: below the threshold | pKd [16, 26]: below the threshold | pKd [17, 26]: below the threshold | pKd [18, 26]: below the threshold | pKd [19, 26]: below the threshold | pKd [20, 26]: 3.61 | pKd [21, 26]: below the threshold | pKd [22, 26]: 3.59 | pKd [23, 26]: below the threshold | pKd [24, 26]: below the threshold

YNNCLEILRV [DCAF7, P61962]
pKd [1, 25]: below the threshold | pKd [2, 25]: below the threshold | pKd [3, 25]: below the threshold | pKd [4, 25]: below the threshold | pKd [5, 25]: below the threshold | pKd [6, 25]: 3.55 | pKd [7, 25]: below the threshold | pKd [8, 25]: 3.9 | pKd [9, 25]: below the threshold | pKd [10, 25]: below the threshold | pKd [11, 25]: 4.68 | pKd [12, 25]: 3.65 | pKd [13, 25]: below the threshold | pKd [14, 25]: below the threshold | pKd [15, 25]: below the threshold | pKd [16, 25]: 4.53 | pKd [17, 25]: below the threshold | pKd [18, 25]: below the threshold | pKd [19, 25]: below the threshold | pKd [20, 25]: below the threshold | pKd [21, 25]: below the threshold | pKd [22, 25]: below the threshold | pKd [23, 25]: below the threshold | pKd [24, 25]: below the threshold

LGRSTPQSEV [DGKH, Q86XP1]
pKd [1, 25]: below the threshold | pKd [2, 25]: below the threshold | pKd [3, 25]: below the threshold | pKd [4, 25]: below the threshold | pKd [5, 25]: below the threshold | pKd [6, 25]: below the threshold | pKd [7, 25]: below the threshold | pKd [8, 25]: 3.51 | pKd [9, 25]: below the threshold | pKd [10, 25]: below the threshold | pKd [11, 25]: below the threshold | pKd [12, 25]: below the threshold | pKd [13, 25]: below the threshold | pKd [14, 25]: 3.52 | pKd [15, 25]: 4.04 | pKd [16, 25]: 4.85 | pKd [17, 25]: below the threshold | pKd [18, 25]: below the threshold | pKd [19, 25]: below the threshold | pKd [20, 25]: 4.4 | pKd [21, 25]: below the threshold | pKd [22, 25]: 3.89 | pKd [23, 25]: 4.49 | pKd [24, 25]: below the threshold
